Target: trimeric gp140 clade A HIV-1 92/UG/037 (HIV-1 clade A strain 92/UG/037)
Assay: SPR

For GNA (natural protein), the Kd was 7.2 nM.

From publication PMC7261407
